In patent US20260055205A1 (published 2026) one finds Kd, koff and kon data, which are given here for seven molecules.

Broadly, the Kd is the concentration at which binding is half-saturated. What is called koff is a measure of how fast the partners let go of each other. For orientation: kon means the rate constant with which the complex forms.

In one assay the target is T1, cynomolgus monkey PSMA (cynomolgus monkey, UniProt A0A2K5VNZ0 44-750).
T1 construct: also called cyPSMA; cyno PSMA
Put plainly: BLI or SPR.

Assay [1] deals with T2, human PSMA (human, UniProt Q04609 44-750, limits assumed).
T2 construct: also called huPSMA; hPSMA
The assay is described as follows: BLI or SPR.

Assay [2] has as its target T3, cynomolgus monkey CD3 epsilon (cynomolgus monkey, UniProt Q95LI5 22-117, limits assumed).
T3 construct: also called cyCD3e; cyno CD3
T3 sequence (looked up): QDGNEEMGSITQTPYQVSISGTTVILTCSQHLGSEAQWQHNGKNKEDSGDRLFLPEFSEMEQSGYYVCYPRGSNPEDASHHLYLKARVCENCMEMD
The assay is described as follows: BLI or SPR.

The target of a further assay is T4, human CD3 epsilon (human, UniProt P07766 23-126, limits assumed).
T4 construct: also called huCD3e
The assay is described as follows: BLI or SPR.

Assay [3] has as its target T2, human PSMA. The assay is described as follows: binding kinetics, uTCE.
Assay [4] addresses T5, human PSMA-Fc (human, UniProt Q04609 44-750).
T5 construct: also called Human PSMA-Fc fusion
Put plainly: Octet, PSMA-Fc. The method, then: Binding affinity of select PSMA PTE variants was tested by Octet.
A general note: In BLI a coated tip is dipped into the sample, and binding shifts an interference pattern.

Assay [5] has as its target T5, human PSMA-Fc. The assay is described as follows: Octet.

T4 sequence (P07766 23-126 limits assumed): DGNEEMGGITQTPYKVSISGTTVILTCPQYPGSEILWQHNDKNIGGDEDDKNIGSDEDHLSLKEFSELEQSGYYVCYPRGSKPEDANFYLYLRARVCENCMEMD
T5 sequence (Q04609 44-750 limits assumed): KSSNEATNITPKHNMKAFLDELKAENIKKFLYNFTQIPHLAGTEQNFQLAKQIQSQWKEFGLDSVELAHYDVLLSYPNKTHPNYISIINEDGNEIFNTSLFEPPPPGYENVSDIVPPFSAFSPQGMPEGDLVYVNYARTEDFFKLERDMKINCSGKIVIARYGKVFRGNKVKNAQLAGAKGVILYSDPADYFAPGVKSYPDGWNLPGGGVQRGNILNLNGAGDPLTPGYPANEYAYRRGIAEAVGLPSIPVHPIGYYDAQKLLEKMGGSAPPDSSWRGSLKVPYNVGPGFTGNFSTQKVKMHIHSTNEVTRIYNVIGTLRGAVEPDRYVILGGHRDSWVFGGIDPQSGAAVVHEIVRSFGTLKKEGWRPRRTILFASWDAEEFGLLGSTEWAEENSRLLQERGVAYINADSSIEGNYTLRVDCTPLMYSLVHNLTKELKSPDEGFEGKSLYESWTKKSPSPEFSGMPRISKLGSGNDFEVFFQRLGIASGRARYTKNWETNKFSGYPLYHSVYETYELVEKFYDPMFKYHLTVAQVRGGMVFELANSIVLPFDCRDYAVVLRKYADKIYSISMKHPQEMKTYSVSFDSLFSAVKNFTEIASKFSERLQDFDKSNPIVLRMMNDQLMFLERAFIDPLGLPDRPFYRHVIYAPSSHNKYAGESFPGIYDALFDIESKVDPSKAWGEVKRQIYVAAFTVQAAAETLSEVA
T2 sequence (Q04609 44-750 limits assumed): as above

B1: AMX-500(1x-C) (bispecific antibody)
chain: GTSESATPESQVQLVESGGGVVQPGRSLRLSCAASGRTFGIYVWGWFRQAPGKEREFVGAMSWSGSNRKVSDSVKGRFTISRDNSKNTLYLQMNSLRAEDTAVYYCAASNKEYGRTWYDFNESDYWGQGTQVTVSSGGGGSGGGSELVVTQEPSLTVSPGGTVTLTCRSSNGAVTSSNYANWVQQKPGQAPRGLIGGTNKRAPGTPARFSGSLLGGKAALTLSGVQPEDEAVYYCALWYPNLWVFGGGTKLTVLSESATPESGPGTSPGATPESGPGTSESATPEVQLVESGGGIVQPGGSLRLSCAASGFTFSTYAMNWVRQAPGKGLEWVGRIRTKRNNYATYYADSVKGRFTISRDDSKNTVYLQMNSLKTEDTAVYYCVRHENFGNSYVSWFAHWGQGTLVTVSSGTATPESGPGEAGRSASHTPAGLTGPATPESGPGTSESATPESGPGSPAGSPTSTEEGTSESATPESGPGSEPATSGSETPGTSESATPESGPGTSTEPSEGSAPGTSTEPSEGSAPGTSTEPSEGSAPGTSTEPSEGSAPGTSTEPSEGSAPGTSTEPSEGSAPGSPAGSPTSTEEGTSTEPSEGSAPGTSESATPESGPGSEPATSGSETPGTSESATPESGPGSEPATSGSETPGTSESATPESGPGTSTEPSEGSAPGTSESATPESGPGSPAGSPTSTEEGSPAGSPTSTEEGSPAGSPTSTEEGTSESATPESGPGTSTEPSEGSAPGTSESATPESGPGSEPATSGSETPGTSESATPESGPGSEPATSGSETPGTSESATPESGPGTSTEPSEGSAPGSPAGSPTSTEEGTSESATPESGPGSEPATSGSETPGTSESATPESGPGSPAGSPTSTEEGSPAGSPTSTEEGTSTEPSEGSAPGTSESATPESGPGTSESATPESGPGTSPSATPESGPGSEPATSGSETPGSEPATSGSETPGSPAGSPTSTEEGTSTEPSEGSAPGTSTEPSEGSAPGSEPATSGSETPGTSESAGEPEA
notes: Lacks the mask linked to the PSMA domain
B1: the Kd with cynomolgus monkey PSMA was 2900 nM; with human PSMA [1], 353 nM; in assay [2] it was 26.7 nM; with human CD3 epsilon, 34.4 nM. Also, the koff with cynomolgus monkey PSMA was 0.039 s⁻¹; with human PSMA [1] it was 0.012 s⁻¹; in assay [2] it was 0.1 s⁻¹; with human CD3 epsilon it was 0.1 s⁻¹. Moreover, the kon was found to be 14000 M⁻¹ s⁻¹ with cynomolgus monkey PSMA, 35000 M⁻¹ s⁻¹ in the assay with human PSMA [1], 3.4e+06 M⁻¹ s⁻¹ in assay [2] and 3.2e+06 M⁻¹ s⁻¹ with human CD3 epsilon.

B2: uTCE PSMA-VHH; CB01B02R3, CD3.23 (bispecific antibody)
chain: LTGPATSGSETPGTQVQLVESGGGLVQAGDSLRLSCVTSGRTFDVYAMGWFRQAPGKERELVAAINWSGSNKFHADSVKGRFTISRDNAWKTLSLQMNSLKPEDTAVYFCAASTRLYGTTWYEFNDSDYWGQGTQVTVSSGGGGSGGGSELVVTQEPSLTVSPGGTVTLTCRSSNGAVTSSNYANWVQQKPGQAPRGLIGGTNKRAPGTPARFSGSLLGGKAALTLSGVQPEDEAVYYCALWYPNLWVFGGGTKLTVLGATPPETGAETESPGETTGGSAESEPPGEGEVQLLESGGGIVQPGGSLKLSCAASGFTFNTYAMNWVRQAPGKGLEWVARIRSKYNNYATYYADSVKDRFTISRDDSKNTVYLQMNNLKTEDTAVYYCVRHENFGNSYVSWFAHWGQGTLVTVSSGTAEAASASGEAGRSANHTPAG
notes: also called PSMA.3
In the assay with human PSMA [3], B2 registered a Kd of 1.15 nM, a koff of 0.000205 s⁻¹ and a kon of 178000 M⁻¹ s⁻¹.

B3: uTCE PSMA-VHH; P01E02R3, CD3.23 (bispecific antibody)
chain: LTGPATSGSETPGTEVQLVESGGGLVQAGGSLKLSCVANGPTFSTYAMAWFRQAPGKEHEFVAAITGDGDTTNNADSVKGRFTISRDNAKNRVYLQLNSLKPEDTAAYYCAAGVHHTYTIPRLWLYWGQGTQVTVSSGGGGSGGGSELVVTQEPSLTVSPGGTVTLTCRSSNGAVTSSNYANWVQQKPGQAPRGLIGGTNKRAPGTPARFSGSLLGGKAALTLSGVQPEDEAVYYCALWYPNLWVFGGGTKLTVLGATPPETGAETESPGETTGGSAESEPPGEGEVQLLESGGGIVQPGGSLKLSCAASGFTFNTYAMNWVRQAPGKGLEWVARIRSKYNNYATYYADSVKDRFTISRDDSKNTVYLQMNNLKTEDTAVYYCVRHENFGNSYVSWFAHWGQGTLVTVSSGTAEAASASGEAGRSANHTPAG
In the assay with human PSMA [3], B3 registered a Kd of 0.6 nM, a koff of 0.000156 s⁻¹ and an on-rate (kon) of 261000 M⁻¹ s⁻¹.

B4: uTCE of AC3265 (bispecific antibody)
chain: QVQLVESGGGVVQPGRSLRLSCAASGRTFGIYVMGWYRQAPGKEREFVAAISWSGSNRLVSDSVKGRFTISRDNSKNTLYLQMNSLRAEDTAVYYCAASNRLYGRTWYDFNESDYWGQGTQVTVSSGGGGSGGGSELVVTQEPSLTVSPGGTVTLTCRSSNGAVTSSNYANWVQQKPGQAPRGLIGGTNKRAPGTPARFSGSLLGGKAALTLSGVQPEDEAVYYCALWYPNLWVFGGGTKLTVLGATPPETGAETESPGETTGGSAESEPPGEGEVQLLESGGGIVQPGGSLKLSCAASGFTFNTYAMNWVRQAPGKGLEWVARIRSKYNNYATYYADSVKDRFTISRDDSKNTVYLQMNNLKTEDTAVYYCVRHENFGNSYVSWFAHWGQGTLVTVSS
notes: Linker given only as 9 residues; also called PSMA.55
As to B4, in the assay with human PSMA-Fc [4], binding was put at a Kd of 2.7 nM, the koff is 0.00028 s⁻¹ and the kon turned out to be 104000 M⁻¹ s⁻¹. Moreover, in the assay with human PSMA-Fc [5], the Kd was found to be 2.7 nM.

B5: uTCE PSMA-VHH; P01G03R3, CD3.23 (bispecific antibody)
chain: LTGPATSGSETPGTEVQLVESGGGLVQAGGSLRLSCVVSGIAFSPYHMAWYRQAPGKQHEWVAVITTGGTTAYNETVEGRFSISRDNARSTVYLQMNSLKPEDTAVYYCNIYGLSLKWGQGTQVTVSSGGGGSGGGSELVVTQEPSLTVSPGGTVTLTCRSSNGAVTSSNYANWVQQKPGQAPRGLIGGTNKRAPGTPARFSGSLLGGKAALTLSGVQPEDEAVYYCALWYPNLWVFGGGTKLTVLGATPPETGAETESPGETTGGSAESEPPGEGEVQLLESGGGIVQPGGSLKLSCAASGFTFNTYAMNWVRQAPGKGLEWVARIRSKYNNYATYYADSVKDRFTISRDDSKNTVYLQMNNLKTEDTAVYYCVRHENFGNSYVSWFAHWGQGTLVTVSSGTAEAASASGEAGRSANHTPAG
In the assay with human PSMA [3], B5 showed a Kd of 55.7 nM, a koff of 0.000539 s⁻¹ and a kon of 9670 M⁻¹ s⁻¹.

B6: AMX-500 (bispecific antibody)
chain: ASSATPESGPGTSTEPSEGSAPGTSESATPESGPGSGPGTSESATPGTSESATPESGPGSEPATSGSETPGTSESATPESGPGTSTEPSEGSAPGSPAGSPTSTEEGTSESATPESGPGSEPATSGSETPGTSESATPESGPGSPAGSPTSTEEGSPAGSPTSTEEGTSTEPSEGSAPGTSESATPESGPGTSESATPESGPGTSESATPESGPGSEPATSGSETPGSEPATSGSETPGSPAGSPTSTEEGTSTEPSEGSAPGTSTEPSEGSAPGSEPATSGSETPGTSESATPEAGRSASHTPAGLTGPGTSESATPESQVQLVESGGGVVQPGRSLRLSCAASGRTFGIYVWGWFRQAPGKEREFVGAMSWSGSNRKVSDSVKGRFTISRDNSKNTLYLQMNSLRAEDTAVYYCAASNKEYGRTWYDFNESDYWGQGTQVTVSSGGGGSGGGSELVVTQEPSLTVSPGGTVTLTCRSSNGAVTSSNYANWVQQKPGQAPRGLIGGTNKRAPGTPARFSGSLLGGKAALTLSGVQPEDEAVYYCALWYPNLWVFGGGTKLTVLSESATPESGPGTSPGATPESGPGTSESATPEVQLVESGGGIVQPGGSLRLSCAASGFTFSTYAMNWVRQAPGKGLEWVGRIRTKRNNYATYYADSVKGRFTISRDDSKNTVYLQMNSLKTEDTAVYYCVRHENFGNSYVSWFAHWGQGTLVTVSSGTATPESGPGEAGRSASHTPAGLTGPATPESGPGTSESATPESGPGSPAGSPTSTEEGTSESATPESGPGSEPATSGSETPGTSESATPESGPGTSTEPSEGSAPGTSTEPSEGSAPGTSTEPSEGSAPGTSTEPSEGSAPGTSTEPSEGSAPGTSTEPSEGSAPGSPAGSPTSTEEGTSTEPSEGSAPGTSESATPESGPGSEPATSGSETPGTSESATPESGPGSEPATSGSETPGTSESATPESGPGTSTEPSEGSAPGTSESATPESGPGSPAGSPTSTEEGSPAGSPTSTEEGSPAGSPTSTEEGTSESATPESGPGTSTEPSEGSAPGTSESATPESGPGSEPATSGSETPGTSESATPESGPGSEPATSGSETPGTSESATPESGPGTSTEPSEGSAPGSPAGSPTSTEEGTSESATPESGPGSEPATSGSETPGTSESATPESGPGSPAGSPTSTEEGSPAGSPTSTEEGTSTEPSEGSAPGTSESATPESGPGTSESATPESGPGTSPSATPESGPGSEPATSGSETPGSEPATSGSETPGSPAGSPTSTEEGTSTEPSEGSAPGTSTEPSEGSAPGSEPATSGSETPGTSESAGEPEA
notes: also called AC3896; AMX-500-P4
For the molecule B6, the figures for the Kd (in assay [2]; with human CD3 epsilon) were 70 nM and 90 nM, respectively.

B7: AMX-500(1x-N) (bispecific antibody)
chain: ASSATPESGPGTSTEPSEGSAPGTSESATPESGPGSGPGTSESATPGTSESATPESGPGSEPATSGSETPGTSESATPESGPGTSTEPSEGSAPGSPAGSPTSTEEGTSESATPESGPGSEPATSGSETPGTSESATPESGPGSPAGSPTSTEEGSPAGSPTSTEEGTSTEPSEGSAPGTSESATPESGPGTSESATPESGPGTSESATPESGPGSEPATSGSETPGSEPATSGSETPGSPAGSPTSTEEGTSTEPSEGSAPGTSTEPSEGSAPGSEPATSGSETPGTSESATPEAGRSASHTPAGLTGPGTSESATPESQVQLVESGGGVVQPGRSLRLSCAASGRTFGIYVWGWFRQAPGKEREFVGAMSWSGSNRKVSDSVKGRFTISRDNSKNTLYLQMNSLRAEDTAVYYCAASNKEYGRTWYDFNESDYWGQGTQVTVSSGGGGSGGGSELVVTQEPSLTVSPGGTVTLTCRSSNGAVTSSNYANWVQQKPGQAPRGLIGGTNKRAPGTPARFSGSLLGGKAALTLSGVQPEDEAVYYCALWYPNLWVFGGGTKLTVLSESATPESGPGTSPGATPESGPGTSESATPEVQLVESGGGIVQPGGSLRLSCAASGFTFSTYAMNWVRQAPGKGLEWVGRIRTKRNNYATYYADSVKGRFTISRDDSKNTVYLQMNSLKTEDTAVYYCVRHENFGNSYVSWFAHWGQGTLVTVSSGTATPESGPG
notes: Lacks the mask linked to the CD3 domain
Take B7: the equilibrium dissociation constant (Kd) in the assay with cynomolgus monkey PSMA is 2400 nM; in the assay with human PSMA [1] it was 230 nM; in assay [2] it was 38 nM; with human CD3 epsilon it was 46.3 nM. Besides, the koff with cynomolgus monkey PSMA came out at 0.039 s⁻¹; with human PSMA [1] it was 0.012 s⁻¹; in assay [2] it was 0.1 s⁻¹; with human CD3 epsilon, 0.1 s⁻¹. Further, the kon in the assay with cynomolgus monkey PSMA came to 16000 M⁻¹ s⁻¹; with human PSMA [1], 50000 M⁻¹ s⁻¹; in assay [2] it was 2.9e+06 M⁻¹ s⁻¹; with human CD3 epsilon, 2.8e+06 M⁻¹ s⁻¹.
